Experimental data as given in patent US20260139035A1 (published 2026).
Numbering of substitutions follows the chain as printed.

B1: 4-66 antibody (antibody, V domains shown)
VH: EVQLVESGGGLVQPGGSLRLSCAASGIIVSRNYMTWVRQAPGKGLEWVSVIYSGGTTYYADSVKGRFTTSRDDSKNTLYLQMNSLRGDDTAVYYCARDPPHRRGSYWGQGTLVTVSS
VL: DILMTQSPSSLSASVGDRVTITCQASQDINKYLNWYQQKPGKAPKLLIYDASNLETGVPSRFSGSGSGTDFSFTISSLQPEDVATYYCQQSDNLPPTFGQGTNVEIK
B2: 1-58 antibody (antibody, V domains shown)
VH: QVQLVQSGAEVKKPGASVRVSCKASGYSFTASYMHWVRQAPGQGLEWMAIINPGDDNTSYAQKFQGRVTLTRDTSTTTVYMELRSLRSEDTAVYYCTRSTRDYVWGNYRYTPGYYLDYWGQGTLVTVSS
VL: DIRMTQSPSSLSASVGDRVTITCRASQTISNYLNWYQQKPGKAPKLLIYAASSLQSGVPSRFSGSGSGTDFTLTISSLQPEDFATYYCQQGYITPITFGQGTRLEIK
B3: 1-44 antibody (antibody, V domains shown)
VH: EVQLVESGGGVVQPGSSLRLSCAASGFTFRSHAMHWVRQAPGKGLEGVAVIWYDGSNKYYADSVKGRFTISRDNSKNTLYLQMNSLRAEDTAVYYCAREGIAVPGNGADAFDIWGQGTMVTVSS
VL: B2 VL with R3Q, T28S, S30G, Y32F, G91T, I93S, I96Y, R103K
B4: 3-1 antibody (antibody, V domains shown)
VH: EVQLVQSGAEVKKPGESLKISCKGSGYIFTNYWIGWVRQMPGKGLEWMGIINPRDSDTRYSPSFQGQVTISTDKSINTAYLQWSSLKASDTAMYYCARQQGGFGDLGAYNWFDPWGQGTLVTVSS
VL: not shown

Each binder was assayed against RBD of the SARS-CoV-2 spike protein (Cayman Chemical kit #502050) (UniProt P0DTC2 319-541).
B1 gave an IC50 of 0.015 µg/mL. In the case of B2, the IC50 is reported as 0.028 µg/mL. B3 showed an IC50 of 0.013 µg/mL. Work on B4 yielded an IC50 of 0.031 µg/mL.
